Assay results as given in patent publication CN109021108A (UNIV NANJING MEDICAL, dated 2018).

Legend:
GPC3-his蛋白 = target: T1, GPC3-his蛋白 (UniProt P51654 25-559); experiment: ELISA titration, GPC3-his coated at 5 μg/ml, 32A9 IgG from 20 μg/ml in 1:2 dilutions, fitted affinity curve
T1 construct: also called GPC3蛋白; not shown: his tag

[1] = target: T2, GPC3 on A431-GPC3细胞 (A431 cells stably transfected with GPC3 cDNA) (UniProt P51654 25-554); experiment: flow cytometry titration on A431-GPC3 cells, 32A9 IgG from 60 μg/ml in 1:2 dilutions, fitted affinity curve
T2 construct: whole, on cells; also called GPC3阳性细胞; GPC3阳性靶细胞
T2 sequence (P51654 25-554 limits assumed, form in doubt): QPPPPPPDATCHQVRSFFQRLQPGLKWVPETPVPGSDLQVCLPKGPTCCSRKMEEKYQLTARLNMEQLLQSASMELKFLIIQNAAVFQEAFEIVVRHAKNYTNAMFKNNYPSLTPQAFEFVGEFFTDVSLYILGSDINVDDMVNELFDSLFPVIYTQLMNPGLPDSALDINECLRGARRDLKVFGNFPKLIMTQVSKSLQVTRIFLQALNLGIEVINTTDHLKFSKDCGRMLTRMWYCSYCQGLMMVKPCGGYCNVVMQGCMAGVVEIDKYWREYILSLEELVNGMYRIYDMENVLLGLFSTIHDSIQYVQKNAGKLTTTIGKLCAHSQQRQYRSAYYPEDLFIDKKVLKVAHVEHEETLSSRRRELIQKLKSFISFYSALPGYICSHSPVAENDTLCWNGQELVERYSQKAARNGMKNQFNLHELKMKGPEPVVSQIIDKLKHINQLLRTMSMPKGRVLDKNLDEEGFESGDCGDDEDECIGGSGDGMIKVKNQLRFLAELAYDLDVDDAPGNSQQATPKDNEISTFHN

T1 sequence (P51654 25-559 limits assumed): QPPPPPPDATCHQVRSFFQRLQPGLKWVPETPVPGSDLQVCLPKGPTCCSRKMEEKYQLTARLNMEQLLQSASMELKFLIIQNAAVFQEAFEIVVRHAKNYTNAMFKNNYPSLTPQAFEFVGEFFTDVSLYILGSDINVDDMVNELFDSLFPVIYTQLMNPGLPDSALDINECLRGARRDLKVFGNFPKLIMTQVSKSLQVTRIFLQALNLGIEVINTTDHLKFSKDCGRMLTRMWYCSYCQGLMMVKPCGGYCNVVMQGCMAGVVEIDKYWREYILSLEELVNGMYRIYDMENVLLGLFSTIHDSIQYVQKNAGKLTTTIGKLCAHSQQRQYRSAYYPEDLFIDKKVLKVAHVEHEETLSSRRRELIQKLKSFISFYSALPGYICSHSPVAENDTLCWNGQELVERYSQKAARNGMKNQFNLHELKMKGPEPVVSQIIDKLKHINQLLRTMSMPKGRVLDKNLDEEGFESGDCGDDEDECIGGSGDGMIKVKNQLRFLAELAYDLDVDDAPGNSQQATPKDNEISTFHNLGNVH

B1: 32A9IgG重组蛋白 (抗体32A9, anti-GPC3 fully human antibody, IgG form) (antibody, V domains shown)
VH: EVQLLESGGGLVQPGGSLRLSCAASGFTFSSYAMSWVRQAPGKGLEWVSGIAYNGASTAYADSVKGRFTISRDNSKNTLYLQMNSLRAEDTAVYYCAKSAGSFDYWGQGTLVTVSS
VL: DIQMTQSPSSLSASVGDRVTITCRASQSISSYLNWYQQKPGKAPKLLIYSASSLQSGVPSRFSGSGSGTDFTLTISSLQPEDFATYYCQQDYAYPYTFGQGTKVEIK
notes: also called 32A9IgG蛋白
Kd (GPC3-his蛋白): 1.93 nM | Kd [1]: 6.25 nM
